± gives the uncertainty stated by the source.

From the Human Domainome abundance scans (Beltran et al. 2025) come the findings set out here.

First the molecules themselves.
B1: Cullin-9, residues 2234 to 2275; numbered along this chain, Q8IWT3 (parent)
chain: KRCPSCQAPIEKNEGCLHMTCAKCNHGFCWRCLKSWKPNHKD

In the series the parent is B1. The series is described as follows: abundance fitness (aPCA) (normalised: wild type 0, dead -1); higher = more abundant; growth selection in yeast, the domain comes from the species named. As to conditions: Homo sapiens.
For KRCPSCQAPIEKNEGCLHMTCAKCNHGFCWRCLKTWKPNHKD [S35T], the abundance fitness was 0.044 ± 0.17. Then KRCPSCQAPIEKNEGCLHMTCAKCNHGFCWRCLKSWKPNHKW [D42W], with -0.692 ± 0.26; and KRCPSCQAPIEKNEGCLHMTCAKCNHGFCWRCLKSWDPNHKD [K37D], with 0.323 ± 0.11; and KRCPSCQAPIEKNEGCLHMTCAKCNHGFCWRCLKSWTPNHKD [K37T], with 0.117 ± 0.1.

For KRCPSCQAPIEKNEGCLHRTCAKCNHGFCWRCLKSWKPNHKD [M19R], the abundance fitness is -0.28 ± 0.08. On to KRCPSCQAPIEKNEGCLHSTCAKCNHGFCWRCLKSWKPNHKD [M19S], for which the abundance fitness amounted to 0.016 ± 0.097. As for KRCPSCQAPIEKNEGCLHATCAKCNHGFCWRCLKSWKPNHKD [M19A], the abundance fitness was -0.048 ± 0.095. Then KRCPSCQAPIEKNEGCLHMTCAKCNHGFCWRPLKSWKPNHKD [C32P], with -0.959 ± 0.14; and KRCPSCQAPIEKNEGCLHMTCAKCNHGFCWRDLKSWKPNHKD [C32D], with -0.199 ± 0.11. Consider KRCPSCQAPIEKNEGCLHMTCAKCNHGFCWRELKSWKPNHKD [C32E], for which the abundance fitness was -0.117 ± 0.094.

On to KRCPSCQAPIEFNEGCLHMTCAKCNHGFCWRCLKSWKPNHKD [K12F], for which the abundance fitness is -0.469 ± 0.38. On to KRCPSCQAPIEKNEGCLHMTCAKCNHGFCWRCLKSWKPNHSD [K41S], for which the abundance fitness is -0.038 ± 0.12. For KRCPSCQAPIEKNEGCLHMTCAKCNHGFCWRCLKSWKPNHPD [K41P], the abundance fitness was 0.318 ± 0.12. Turning to KRCPSCQAPIEKNEGCLHMTCAKCNHGFCWRCLKSWKPNHED [K41E], the abundance fitness came out at 0.281 ± 0.096.

For the variant KRCPSCQAPIEKNEGCLHMTCAKCNHGFCWRCLKSWKPNHND [K41N], the abundance fitness is -0.132 ± 0.37. As to KRCPSCQAPIEKNEGCLQMTCAKCNHGFCWRCLKSWKPNHKD [H18Q], the abundance fitness worked out at 0.106 ± 0.1.

In the case of KRCPSCQAPIEKNEGCLWMTCAKCNHGFCWRCLKSWKPNHKD [H18W], the abundance fitness was -0.329 ± 0.09. As to KRCPSCQAPIEKNEGCLLMTCAKCNHGFCWRCLKSWKPNHKD [H18L], the abundance fitness was -0.104 ± 0.09.

Take KRCPSCQLPIEKNEGCLHMTCAKCNHGFCWRCLKSWKPNHKD [A8L]: the abundance fitness is -0.256 ± 0.083. KRCPSCQMPIEKNEGCLHMTCAKCNHGFCWRCLKSWKPNHKD [A8M]: the abundance fitness is -0.155 ± 0.1.

For the variant KRCPSCQYPIEKNEGCLHMTCAKCNHGFCWRCLKSWKPNHKD [A8Y], the abundance fitness is -0.005 ± 0.14.

Regarding KRCPSCQAPIEKNEGCLHMTCAKCNHQFCWRCLKSWKPNHKD [G27Q], the abundance fitness came out at 0.439 ± 0.13. Turning to KRCPSCQAPIEKNEGCLHMTCAKCNHTFCWRCLKSWKPNHKD [G27T], the abundance fitness stood at 0.326 ± 0.11. Consider KRCPSCQAPIEKNEGCLHMTCAKCNHLFCWRCLKSWKPNHKD [G27L], for which the abundance fitness was -0.457 ± 0.099.

As to KRCPSCQAPIEKNEGCLHMTCAMCNHGFCWRCLKSWKPNHKD [K23M], the abundance fitness is -0.323 ± 0.14. On to KRCPSCQAPIEKNEGCLHMTCAQCNHGFCWRCLKSWKPNHKD [K23Q], for which the abundance fitness is -0.454 ± 0.14. With KRNPSCQAPIEKNEGCLHMTCAKCNHGFCWRCLKSWKPNHKD [C3N], the abundance fitness was 0.169 ± 0.24. Consider KRFPSCQAPIEKNEGCLHMTCAKCNHGFCWRCLKSWKPNHKD [C3F], for which the abundance fitness was -0.416 ± 0.2. Take KRGPSCQAPIEKNEGCLHMTCAKCNHGFCWRCLKSWKPNHKD [C3G]: the abundance fitness was -0.485 ± 0.08. As for KRAPSCQAPIEKNEGCLHMTCAKCNHGFCWRCLKSWKPNHKD [C3A], the abundance fitness was -1.03 ± 0.12. Take KRCPSCQAPIEKNNGCLHMTCAKCNHGFCWRCLKSWKPNHKD [E14N]: the abundance fitness is -0.219 ± 0.24.

Regarding KRCPSCQAPIEKNSGCLHMTCAKCNHGFCWRCLKSWKPNHKD [E14S], the abundance fitness was -0.047 ± 0.1. Take KRCPSCQAPIEKNEGCLHMTCAKCNHGFHWRCLKSWKPNHKD [C29H]: the abundance fitness is -0.532 ± 0.16. On to KRCPSCQAPIEKNEGCLHMTCAKCNKGFCWRCLKSWKPNHKD [H26K], for which the abundance fitness was -0.314 ± 0.16.

On to KRCPSCQAPIEKNEGCLHMTCAKCNFGFCWRCLKSWKPNHKD [H26F], for which the abundance fitness worked out at 0.146 ± 0.2.

For the variant KRCPSCQAPIEKNEGCLHMTCAKCNEGFCWRCLKSWKPNHKD [H26E], the abundance fitness is -0.091 ± 0.093. For KRCPSCQAPIEKNEGCLHMTCAKCNCGFCWRCLKSWKPNHKD [H26C], the abundance fitness was -0.628 ± 0.15. Regarding KRCPSCQAPIEKNEGCLHMTCAKCNGGFCWRCLKSWKPNHKD [H26G], the abundance fitness was -0.02 ± 0.075. The value for KRCPSCQAPIEKNEGCLHMTCAKCNDGFCWRCLKSWKPNHKD [H26D] was 0.063 ± 0.11. In the case of KRCPSCQAPIEKNEGCLHMTCAKCNSGFCWRCLKSWKPNHKD [H26S], the abundance fitness is 0.055 ± 0.12.

With KRCPSCQAPIEKNEGCLHMTCAKCNNGFCWRCLKSWKPNHKD [H26N], the abundance fitness is -0.287 ± 0.16. Then KRCPECQAPIEKNEGCLHMTCAKCNHGFCWRCLKSWKPNHKD [S5E], with 0.496 ± 0.091; and KRCPPCQAPIEKNEGCLHMTCAKCNHGFCWRCLKSWKPNHKD [S5P], with -0.401 ± 0.1; and KRCPLCQAPIEKNEGCLHMTCAKCNHGFCWRCLKSWKPNHKD [S5L], with -0.121 ± 0.081. For KRCPWCQAPIEKNEGCLHMTCAKCNHGFCWRCLKSWKPNHKD [S5W], the abundance fitness amounted to 0.313 ± 0.085.

As to KRCPTCQAPIEKNEGCLHMTCAKCNHGFCWRCLKSWKPNHKD [S5T], the abundance fitness was 0.224 ± 0.087. Then KRCPSCQAPIEKNEGCLHMTCAKCNHGFCWRCIKSWKPNHKD [L33I], with -0.501 ± 0.19. The value for KRCPSCQAPIEKNEGCLHMTCAKCNHGFCWRCRKSWKPNHKD [L33R] was -0.418 ± 0.079; that for KRCPSCQAPIEKNEGCLHMTCAKCNHGFCWRCHKSWKPNHKD [L33H] was -0.321 ± 0.2; that for KRCPSHQAPIEKNEGCLHMTCAKCNHGFCWRCLKSWKPNHKD [C6H] was -0.222 ± 0.11. Turning to KRCPSQQAPIEKNEGCLHMTCAKCNHGFCWRCLKSWKPNHKD [C6Q], the abundance fitness is -0.587 ± 0.12. Regarding KRCMSCQAPIEKNEGCLHMTCAKCNHGFCWRCLKSWKPNHKD [P4M], the abundance fitness is -0.079 ± 0.11. Turning to KRCCSCQAPIEKNEGCLHMTCAKCNHGFCWRCLKSWKPNHKD [P4C], the abundance fitness was found to be 0.182 ± 0.12. With KRCYSCQAPIEKNEGCLHMTCAKCNHGFCWRCLKSWKPNHKD [P4Y], the abundance fitness is 0.231 ± 0.17.

With KRCFSCQAPIEKNEGCLHMTCAKCNHGFCWRCLKSWKPNHKD [P4F], the abundance fitness came to 0.434 ± 0.21.

As to KRCSSCQAPIEKNEGCLHMTCAKCNHGFCWRCLKSWKPNHKD [P4S], the abundance fitness was -0.129 ± 0.099. Consider KRCPSCQAPIVKNEGCLHMTCAKCNHGFCWRCLKSWKPNHKD [E11V], for which the abundance fitness is -0.408 ± 0.1.

KRCPSCQAPIAKNEGCLHMTCAKCNHGFCWRCLKSWKPNHKD [E11A]: the abundance fitness was -0.185 ± 0.14.

For KRCPSCQAPIDKNEGCLHMTCAKCNHGFCWRCLKSWKPNHKD [E11D], the abundance fitness was -0.137 ± 0.2. The value for KRCPSCQAPIEKNELCLHMTCAKCNHGFCWRCLKSWKPNHKD [G15L] was -0.515 ± 0.17.
